According to PMC11774805, “The C-terminal α-helix is crucial for the activity of the bacterial ABC transporter BmrA” (The Journal of Biological Chemistry, 2024):

B1: BmrA D572A (natural protein, Bacillus subtilis strain 168, UniProt O06967 1-589, looked up)
chain: MPTKKQKSKSKLKPFFALVRRTNPSYGKLAFALALSVVTTLVSLLIPLLTKQLVDGFSMSNLSGTQIGLIALVFFVQAGLSAYATYALNYNGQKIISGLRELLWKKLIKLPVSYFDTNASGETVSRVTNDTMVVKELITTHISGFITGIISVIGSLTILFIMNWKLTLLVLVVVPLAALILVPIGRKMFSISRETQDETARFTGLLNQILPEIRLVKASNAEDVEYGRGKMGISSLFKLGVREAKVQSLVGPLISLVLMAALVAVIGYGGMQVSSGELTAGALVAFILYLFQIIMPMGQITTFFTQLQKSIGATERMIEILAEEEEDTVTGKQIENAHLPIQLDRVSFGYKPDQLILKEVSAVIEAGKVTAIVGPSGGGKTTLFKLLERFYSPTAGTIRLGDEPVDTYSLESWREHIGYVSQESPLMSGTIRENICYGLERDVTDAEIEKAAEMAYALNFIKELPNQFDTEVGERGIMLSGGQRQRIAIARALLRNPSILMLDEATSSLDSQSEKSVQQALEVLMEGRTTIVIAHRLSTVVDADQLLFVEKGEITGRGTHHELMASHGLYRAFAEQQLKMNADLENKAG
notes: BmrA of Bacillus subtilis strain 168, full length, D572 replaced by Ala; source: E. coli, purified in presence of detergent (DDM)
B2: BmrA L578A (natural protein, Bacillus subtilis strain 168, UniProt O06967 1-589, looked up)
chain: MPTKKQKSKSKLKPFFALVRRTNPSYGKLAFALALSVVTTLVSLLIPLLTKQLVDGFSMSNLSGTQIGLIALVFFVQAGLSAYATYALNYNGQKIISGLRELLWKKLIKLPVSYFDTNASGETVSRVTNDTMVVKELITTHISGFITGIISVIGSLTILFIMNWKLTLLVLVVVPLAALILVPIGRKMFSISRETQDETARFTGLLNQILPEIRLVKASNAEDVEYGRGKMGISSLFKLGVREAKVQSLVGPLISLVLMAALVAVIGYGGMQVSSGELTAGALVAFILYLFQIIMPMGQITTFFTQLQKSIGATERMIEILAEEEEDTVTGKQIENAHLPIQLDRVSFGYKPDQLILKEVSAVIEAGKVTAIVGPSGGGKTTLFKLLERFYSPTAGTIRLGDEPVDTYSLESWREHIGYVSQESPLMSGTIRENICYGLERDVTDAEIEKAAEMAYALNFIKELPNQFDTEVGERGIMLSGGQRQRIAIARALLRNPSILMLDEATSSLDSQSEKSVQQALEVLMEGRTTIVIAHRLSTVVDADQLLFVEKGEITGRGTHHELMASHGLYRDFAEQQAKMNADLENKAG
notes: BmrA of Bacillus subtilis strain 168, full length, L578 replaced by Ala; source: E. coli, purified in presence of detergent (DDM)
B3: BmrA L569A (natural protein, Bacillus subtilis strain 168, UniProt O06967 1-589, looked up)
chain: MPTKKQKSKSKLKPFFALVRRTNPSYGKLAFALALSVVTTLVSLLIPLLTKQLVDGFSMSNLSGTQIGLIALVFFVQAGLSAYATYALNYNGQKIISGLRELLWKKLIKLPVSYFDTNASGETVSRVTNDTMVVKELITTHISGFITGIISVIGSLTILFIMNWKLTLLVLVVVPLAALILVPIGRKMFSISRETQDETARFTGLLNQILPEIRLVKASNAEDVEYGRGKMGISSLFKLGVREAKVQSLVGPLISLVLMAALVAVIGYGGMQVSSGELTAGALVAFILYLFQIIMPMGQITTFFTQLQKSIGATERMIEILAEEEEDTVTGKQIENAHLPIQLDRVSFGYKPDQLILKEVSAVIEAGKVTAIVGPSGGGKTTLFKLLERFYSPTAGTIRLGDEPVDTYSLESWREHIGYVSQESPLMSGTIRENICYGLERDVTDAEIEKAAEMAYALNFIKELPNQFDTEVGERGIMLSGGQRQRIAIARALLRNPSILMLDEATSSLDSQSEKSVQQALEVLMEGRTTIVIAHRLSTVVDADQLLFVEKGEITGRGTHHELMASHGAYRDFAEQQLKMNADLENKAG
notes: BmrA of Bacillus subtilis strain 168, full length, L569 replaced by Ala; source: E. coli, purified in presence of detergent (DDM)
B4: BmrA E575A (natural protein, Bacillus subtilis strain 168, UniProt O06967 1-589, looked up)
chain: MPTKKQKSKSKLKPFFALVRRTNPSYGKLAFALALSVVTTLVSLLIPLLTKQLVDGFSMSNLSGTQIGLIALVFFVQAGLSAYATYALNYNGQKIISGLRELLWKKLIKLPVSYFDTNASGETVSRVTNDTMVVKELITTHISGFITGIISVIGSLTILFIMNWKLTLLVLVVVPLAALILVPIGRKMFSISRETQDETARFTGLLNQILPEIRLVKASNAEDVEYGRGKMGISSLFKLGVREAKVQSLVGPLISLVLMAALVAVIGYGGMQVSSGELTAGALVAFILYLFQIIMPMGQITTFFTQLQKSIGATERMIEILAEEEEDTVTGKQIENAHLPIQLDRVSFGYKPDQLILKEVSAVIEAGKVTAIVGPSGGGKTTLFKLLERFYSPTAGTIRLGDEPVDTYSLESWREHIGYVSQESPLMSGTIRENICYGLERDVTDAEIEKAAEMAYALNFIKELPNQFDTEVGERGIMLSGGQRQRIAIARALLRNPSILMLDEATSSLDSQSEKSVQQALEVLMEGRTTIVIAHRLSTVVDADQLLFVEKGEITGRGTHHELMASHGLYRDFAAQQLKMNADLENKAG
notes: BmrA of Bacillus subtilis strain 168, full length, E575 replaced by Ala; source: E. coli, purified in presence of detergent (DDM)
B5: BmrA A574V (natural protein, Bacillus subtilis strain 168, UniProt O06967 1-589, looked up)
chain: MPTKKQKSKSKLKPFFALVRRTNPSYGKLAFALALSVVTTLVSLLIPLLTKQLVDGFSMSNLSGTQIGLIALVFFVQAGLSAYATYALNYNGQKIISGLRELLWKKLIKLPVSYFDTNASGETVSRVTNDTMVVKELITTHISGFITGIISVIGSLTILFIMNWKLTLLVLVVVPLAALILVPIGRKMFSISRETQDETARFTGLLNQILPEIRLVKASNAEDVEYGRGKMGISSLFKLGVREAKVQSLVGPLISLVLMAALVAVIGYGGMQVSSGELTAGALVAFILYLFQIIMPMGQITTFFTQLQKSIGATERMIEILAEEEEDTVTGKQIENAHLPIQLDRVSFGYKPDQLILKEVSAVIEAGKVTAIVGPSGGGKTTLFKLLERFYSPTAGTIRLGDEPVDTYSLESWREHIGYVSQESPLMSGTIRENICYGLERDVTDAEIEKAAEMAYALNFIKELPNQFDTEVGERGIMLSGGQRQRIAIARALLRNPSILMLDEATSSLDSQSEKSVQQALEVLMEGRTTIVIAHRLSTVVDADQLLFVEKGEITGRGTHHELMASHGLYRDFVEQQLKMNADLENKAG
notes: BmrA of Bacillus subtilis strain 168, full length, A574 replaced by Val; source: E. coli, purified in presence of detergent (DDM)
B6: BmrA F573A (natural protein, Bacillus subtilis strain 168, UniProt O06967 1-589, looked up)
chain: MPTKKQKSKSKLKPFFALVRRTNPSYGKLAFALALSVVTTLVSLLIPLLTKQLVDGFSMSNLSGTQIGLIALVFFVQAGLSAYATYALNYNGQKIISGLRELLWKKLIKLPVSYFDTNASGETVSRVTNDTMVVKELITTHISGFITGIISVIGSLTILFIMNWKLTLLVLVVVPLAALILVPIGRKMFSISRETQDETARFTGLLNQILPEIRLVKASNAEDVEYGRGKMGISSLFKLGVREAKVQSLVGPLISLVLMAALVAVIGYGGMQVSSGELTAGALVAFILYLFQIIMPMGQITTFFTQLQKSIGATERMIEILAEEEEDTVTGKQIENAHLPIQLDRVSFGYKPDQLILKEVSAVIEAGKVTAIVGPSGGGKTTLFKLLERFYSPTAGTIRLGDEPVDTYSLESWREHIGYVSQESPLMSGTIRENICYGLERDVTDAEIEKAAEMAYALNFIKELPNQFDTEVGERGIMLSGGQRQRIAIARALLRNPSILMLDEATSSLDSQSEKSVQQALEVLMEGRTTIVIAHRLSTVVDADQLLFVEKGEITGRGTHHELMASHGLYRDAAEQQLKMNADLENKAG
notes: BmrA of Bacillus subtilis strain 168, full length, F573 replaced by Ala; source: E. coli, purified in presence of detergent (DDM)
B7: BmrA R571A (natural protein, Bacillus subtilis strain 168, UniProt O06967 1-589, looked up)
chain: MPTKKQKSKSKLKPFFALVRRTNPSYGKLAFALALSVVTTLVSLLIPLLTKQLVDGFSMSNLSGTQIGLIALVFFVQAGLSAYATYALNYNGQKIISGLRELLWKKLIKLPVSYFDTNASGETVSRVTNDTMVVKELITTHISGFITGIISVIGSLTILFIMNWKLTLLVLVVVPLAALILVPIGRKMFSISRETQDETARFTGLLNQILPEIRLVKASNAEDVEYGRGKMGISSLFKLGVREAKVQSLVGPLISLVLMAALVAVIGYGGMQVSSGELTAGALVAFILYLFQIIMPMGQITTFFTQLQKSIGATERMIEILAEEEEDTVTGKQIENAHLPIQLDRVSFGYKPDQLILKEVSAVIEAGKVTAIVGPSGGGKTTLFKLLERFYSPTAGTIRLGDEPVDTYSLESWREHIGYVSQESPLMSGTIRENICYGLERDVTDAEIEKAAEMAYALNFIKELPNQFDTEVGERGIMLSGGQRQRIAIARALLRNPSILMLDEATSSLDSQSEKSVQQALEVLMEGRTTIVIAHRLSTVVDADQLLFVEKGEITGRGTHHELMASHGLYADFAEQQLKMNADLENKAG
notes: BmrA of Bacillus subtilis strain 168, full length, R571 replaced by Ala; source: E. coli, purified in presence of detergent (DDM)
B8: BmrA Q576A (natural protein, Bacillus subtilis strain 168, UniProt O06967 1-589, looked up)
chain: MPTKKQKSKSKLKPFFALVRRTNPSYGKLAFALALSVVTTLVSLLIPLLTKQLVDGFSMSNLSGTQIGLIALVFFVQAGLSAYATYALNYNGQKIISGLRELLWKKLIKLPVSYFDTNASGETVSRVTNDTMVVKELITTHISGFITGIISVIGSLTILFIMNWKLTLLVLVVVPLAALILVPIGRKMFSISRETQDETARFTGLLNQILPEIRLVKASNAEDVEYGRGKMGISSLFKLGVREAKVQSLVGPLISLVLMAALVAVIGYGGMQVSSGELTAGALVAFILYLFQIIMPMGQITTFFTQLQKSIGATERMIEILAEEEEDTVTGKQIENAHLPIQLDRVSFGYKPDQLILKEVSAVIEAGKVTAIVGPSGGGKTTLFKLLERFYSPTAGTIRLGDEPVDTYSLESWREHIGYVSQESPLMSGTIRENICYGLERDVTDAEIEKAAEMAYALNFIKELPNQFDTEVGERGIMLSGGQRQRIAIARALLRNPSILMLDEATSSLDSQSEKSVQQALEVLMEGRTTIVIAHRLSTVVDADQLLFVEKGEITGRGTHHELMASHGLYRDFAEAQLKMNADLENKAG
notes: BmrA of Bacillus subtilis strain 168, full length, Q576 replaced by Ala; source: E. coli, purified in presence of detergent (DDM)
B9: BmrA Q577A (natural protein, Bacillus subtilis strain 168, UniProt O06967 1-589, looked up)
chain: MPTKKQKSKSKLKPFFALVRRTNPSYGKLAFALALSVVTTLVSLLIPLLTKQLVDGFSMSNLSGTQIGLIALVFFVQAGLSAYATYALNYNGQKIISGLRELLWKKLIKLPVSYFDTNASGETVSRVTNDTMVVKELITTHISGFITGIISVIGSLTILFIMNWKLTLLVLVVVPLAALILVPIGRKMFSISRETQDETARFTGLLNQILPEIRLVKASNAEDVEYGRGKMGISSLFKLGVREAKVQSLVGPLISLVLMAALVAVIGYGGMQVSSGELTAGALVAFILYLFQIIMPMGQITTFFTQLQKSIGATERMIEILAEEEEDTVTGKQIENAHLPIQLDRVSFGYKPDQLILKEVSAVIEAGKVTAIVGPSGGGKTTLFKLLERFYSPTAGTIRLGDEPVDTYSLESWREHIGYVSQESPLMSGTIRENICYGLERDVTDAEIEKAAEMAYALNFIKELPNQFDTEVGERGIMLSGGQRQRIAIARALLRNPSILMLDEATSSLDSQSEKSVQQALEVLMEGRTTIVIAHRLSTVVDADQLLFVEKGEITGRGTHHELMASHGLYRDFAEQALKMNADLENKAG
notes: BmrA of Bacillus subtilis strain 168, full length, Q577 replaced by Ala; source: E. coli, purified in presence of detergent (DDM)

Molecular target: the molecule itself
Experiment: native gel or EMSA; blue native PAGE of purified BmrA wt and Ala (Val) variants in DDM micelles; 4 to 16% Bis-Tris gel; dimer to monomers

Binding result, binds:
B1, B2, B3, B4, B5, B6, B7, B8, B9
